Reference: patent publication US10538782B2, “Plants having increased tolerance to herbicides” (BASF SE, priority 2015, dated 2020)
Changes are numbered by the printed parent chain. Numbers in names are those of the source.

B1: L88AL92A: mutated TriA (SEQ ID NO: 2) in which position 88 is Ala and position 92 is Ala (protein)
chain: MQTLSIQHGTLVTMDQYRRVLGDSWVHVQDGRIVALGVHAESVPPPADRVIDARGKVVLPGFINAHTHVNQILLRGGPSHGRQLYDWAFNVAYPGQKAMRPEDVAVAVRLYCAEAVRSGITTINDNADSAIYPGNIEAAMAVYGEVGVRVVYARMFFDRMDGRIQGYVDALKARSPQVELCSIMEETAVAKDRITALSDQYHGTAGGRISVWPAPAITPAVTVEGMRWAQAFARDRAVMWTLHMAESDHDERLHWMSPAEYMECYGLLDERLQVAHCVYFDRKDVRLLHRHNVKVASQVVSNAYLGSGVAPVPEMVERGMAVGIGTDDGNCNDSVNMIGDMKFMAHIHRAVHRDADVLTPEKILEMATIDGARSLGMDHEIGSIETGKRADLILLDLRHPQTTPHHHLAATIVFQAYGNEVDTVLIDGNVVMENRRLSFLPPERELAFLEEAQSRATAILQRANMVANPAWRSL
modifications: Pseudomonas
B2: D128I: mutated TriA (SEQ ID NO: 2) in which position 128 is Ile (protein)
chain: B1 chain with A88L, A92L, D128I
modifications: Pseudomonas
B3: N70N: TriA (melamine deaminase, SEQ ID NO: 2) with position 70 unchanged, apparently the wildtype reference (protein)
chain: B1 chain with A88L, A92L
modifications: Pseudomonas
B4: M155V: mutated TriA (SEQ ID NO: 2) in which position 155 is Val (protein)
chain: B1 chain with A88L, A92L, M155V
modifications: Pseudomonas
B5: L92V: mutated TriA (SEQ ID NO: 2) in which position 92 is Val (protein)
chain: B1 chain with A88L, A92V
modifications: Pseudomonas
B6: N70A: mutated TriA (SEQ ID NO: 2) in which position 70 is Ala (protein)
chain: B1 chain with N70A, A88L, A92L
modifications: Pseudomonas

Tested on: Soybean cv Jake
Assay: Herbicide tolerance test of transgenic soybean events, roots of cuttings treated via nutrient solution with the herbicide
Format: in vivo
Conditions: transgenic plants expressing the TriA variant, herbicide treatment; 0% no injury, 100% complete death; herbicide and species not given
Protocol: Binary vectors are generated as described in EXAMPLE 9. Soybean cv Jake are transformed as previously described by Siminszky et al., Phytochem Rev. 5:445-458 (2006). After regeneration, transformants are transplanted to soil in small pots, placed in growth chambers (16 hr day/8 hr night; 25° C. day/23° C. night; 65% relative humidity; 130-150 microE m-2 s-1) and subsequently tested for the presence of the T-DNA via Taqman analysis. After a few weeks, healthy, transgenic positive, single copy events are transplanted to larger pots and allowed to grow in the growth chamber. An optimal shoot for cutting is about 3-4 inches tall, with at least two nodes present. Each cutting is taken from the original transformant (mother plant) and dipped into rooting hormone powder (indole-3-butyric acid, IBA). The cutting is then placed in oasis wedges inside a bio-dome. The mother plant is taken to maturity in the greenhouse and harvested for seed. Wild type cuttings are also taken simultaneously to serve as negative controls. The cuttings are kept in the bio-dome for 5-7 days. 7-10 days after transfer to oasis wedges, the roots are treated via nutrient solution with the herbicide. Typical phytotox symptoms, like club shaped root, are evaluated 3-4 days after treatment. Less or no injury of transgenic plants compared to wildtype plants are interpreted as herbicide tolerance.

Molecule | Root injury [%]
B1 | 0%
B2 | 0%
B3 | 80%
B4 | 10%
B5 | 50%
B6 | 0%
